According to the DeepSol protein solubility set:

Assay: soluble on expression in E. coli; label from the status in PepcDB or PDB records

Sequence | soluble on expression in E. coli
MALHLHRAERTDLLADGLGALLADPQPDPFAQELVLVAARGVERWLSQRLSLVLGCGPGRADGVCAGIAFRNPQSLIAEITGTLDDDPWSPEALAWPLLAVIDASLDEPWCRTLASHLGHFATTDAEAELRRGRRYSVARRLAGLFASYARQRPGLLAAWLDGDLGELPGDLAWQPPLWRALVTTVGADPPHVRHDKTIARLRDGPADLPARLSLFGHTRLACTDVQLLDALAVHHDLHLWLPHPSDELWRALAGFQGADGLLPRRQDTSRRAAQHPLLETLGRDVRELQRALPAARATDEFLGATTKPDTLLGWLQADIAGNAPRPAGRSLSDADRSVQVHACHGPARQIDVLREVLLGLLEDDPTLQPRDIVVMCPDIDTYAPLIVAGFGLGEVAGDCHPAHRLRVRLADRALTQTNPLLSVAAELLTIAETRATASQLLNLAQAAPVRAKFGFADDDLDTITTWVRESNIRWGFDPTHRRRYGLDTVVHNTWRFGLDRILTGVAMSEDSQAWLDTALPLDDVGSNRVELAGRLAEFVERLHHVVGGLSGARPLVAWLDALATGIDLLTACNDGWQRAQVQREFADVLARAGSRAAPLLRLPDVRALLDAQLAGRPTRANFRTGTLTVCTMVPMRSVPHRVVCLVGLDDGVFPRLSHPDGDDVLAREPMTGERDIRSEDRQLLLDAIGAATQTLVITYTGADERTGQPRPPAVPLAELLDALDQTTSAPVRERILVTHPLQPFDRKNVTPGALLGAKPFTFDPAALAAAQAAAGKRCPPTAFISGRLPAPPAADVTLADLLDFFKDPVKGFFRALDYTLPWDVDTVEDSIPVQVDALAEWTVGERMLRDMLRGLHPDDAAHSEWRRGTLPPGRLGVRRAKEIRNRARDLAAAALAHRDGHGQAHDVDVDLGDGRRLSGTVTPVFGGRTVSVTYSKLAPKHVLPAWIGLVTLAAQEPGREWSALCIGRSKTRNHIARRLFVPPPDPVAVLRELVLLYDAGRREPLPLPLKTSCAWAQARRDGQDPYPPARECWQTNRFRPGDDDAPAHVRAWGPRAPFEVLLGKPRAGEEVAGEETRLGALAARLWLPLLAAEGSV | soluble
MSKLVVIGGGPAGYVAAITAAQNGKNVTLIDEADLGGTCLNVGCMPTKSLLESAEVHDIVRKSNHYGVTLNNGSISIDWKQMQVRKSQIVTQLVQGIQYLMKKNKIKVIQGKAKFETDHRVRVTYGDKEIVVDGEQFIIATGSEPTELPFAPFDGKWILNSTHAMSLKNIPKSLLIVGGGVIGCEFASIYSRLGTKVTIVEMAPQLLPGEDEDIAHILRGKLENDGVKIFTGATLKGLNSYKKQALFEYEGGIQEVNPEFVLVSVGRKPRVQQLNLEKAGIQYSNKGISVNEHMQTNVSHIYAAGDVIGGIQLAHVAFHEGTTAALYASGEDVKVNYHAVPRCIYTAPEIASVGLTEKDAKEQYGDIQIGEFPFTANGKALIIGEQTGKVKVIVEPKYQEIVGISIIGPRATELIGQGTVMIHTEVTADIMRDYIAAHPTLSESIHEALLQAVGHAVHA | not soluble
MIYKNRLLKTIRYNVKATTISPLAIRDDEDNLKIDQLTGKVYIPGSSVAGAFRNYYENYIDKNSNENFNELFGGQKTGMSQIVFYDGYLVNDYVKEMISSRPGIKMDLKRMTVEVSDDAKKSGKKFKRRFLNEGLTFEFVFELNNYEDDAGKFEEKQRKFEELLKAFSIGDISLGSNKMIGYGRFRVDSISKSVFDFTNINDLLKYMLMETDSTEITQDILGREQETSKVRFKIKGKTVTPLLVKDETVRLSNESDGINIKDSRGNYIIPGSSIKGVIRSRAERLHRTFPCIGEEILTNIFGIESKKDDDGHISRLSCFDAVVKNPNKGIYNKIKIDYFTGGVMQGALMNDEVVMGDVEIECTFNTSGLNDYKREIGLLLLVLRDLCKEDLSIGSGYAVGRGYIKAETLELYDGEKLVLDFKSPNREVLKRFDSYISSLMNVG | soluble
MIENIMSLQKGLPEEISALEEDLAFTSRQIEARKKIADERQKLRERLNSVIHDCKEKIKSFKEKQTLARNNKEYDALSKQIEYEEKEIAQAEIQLQDISHAEHHAQELQKKGRELIAENRYDEISEEMMPDDVLQQQMEDLGQQVRQKKEELESIVVETAEEVAQLKAVLSEQRSVVAQQAKRLLDKYDHLKSGSIQNAVVKLDRQACSGCNTRVPTNRHTLIVQGGFYVCESCGRIVVHERLFDEAAASGQQ | not soluble
LEANEGSKTLQRNRKMAMGRKKFNMDPKKGIQFLVENELLQNTPEEIARFLYKGEGLNKTAIGDYLGEREELNLAVLHAFVDLHEFTDLNLVQALRQFLWSFRLPGEAQKIDRMMEAFAQRYCLCNPGVFQSTDTCYVLSYSVIMLNTDLHNPNVRDKMGLERFVAMNRGINEGGDLPEELLRNLYDSIRNEPFKIPEDDGND | soluble
